Each block holds one molecule with its values, some of them ahead of it.
Tests used:
[1] = molecular target: T1, rat CD5 antigen (rat equivalent of CD5) present on rat T cells (rat) (UniProt P51882); experiment: flow cytometry of rat blood cells 3 h after 0.5 mg/kg i.v., PE anti-mouse IgG1 detection
T1 sequence (looked up): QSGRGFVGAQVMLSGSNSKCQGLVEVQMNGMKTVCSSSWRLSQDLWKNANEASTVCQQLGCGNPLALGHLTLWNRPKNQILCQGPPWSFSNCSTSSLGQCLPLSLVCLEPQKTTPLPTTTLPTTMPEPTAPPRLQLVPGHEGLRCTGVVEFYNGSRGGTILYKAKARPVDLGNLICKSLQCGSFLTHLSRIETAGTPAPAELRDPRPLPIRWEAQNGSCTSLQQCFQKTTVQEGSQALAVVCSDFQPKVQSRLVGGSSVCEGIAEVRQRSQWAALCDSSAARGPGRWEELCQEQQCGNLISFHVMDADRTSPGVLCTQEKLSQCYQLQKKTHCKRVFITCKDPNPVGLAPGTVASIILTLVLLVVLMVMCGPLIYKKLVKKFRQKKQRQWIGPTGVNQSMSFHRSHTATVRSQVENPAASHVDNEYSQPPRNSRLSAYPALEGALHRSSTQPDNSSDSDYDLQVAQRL

[2] = molecular target: T1, rat CD5 antigen (rat equivalent of CD5) present on rat T cells (rat); experiment: flow cytometry of rat spleen cells 3 h after 0.5 mg/kg i.v., PE anti-mouse IgG1 detection
[3] = molecular target: T1, rat CD5 antigen (rat equivalent of CD5) present on rat T cells (rat); experiment: flow cytometry of rat lymph node cells 3 h after 0.5 mg/kg i.v., PE anti-mouse IgG1 detection
[4] = molecular target: T1, rat CD5 antigen (rat equivalent of CD5) present on rat T cells (rat); experiment: flow cytometry of rat spleen cells 3 h after 0.5 mg/kg i.v., PE anti-mouse IgG1 detection (isotype matched negative control)
[5] = molecular target: T1, rat CD5 antigen (rat equivalent of CD5) present on rat T cells (rat); experiment: flow cytometry of rat blood cells 3 h after 0.5 mg/kg i.v., PE anti-mouse IgG1 detection (isotype matched negative control)
[6] = molecular target: T1, rat CD5 antigen (rat equivalent of CD5) present on rat T cells (rat); experiment: flow cytometry of rat lymph node cells 3 h after 0.5 mg/kg i.v., PE anti-mouse IgG1 detection (isotype matched negative control)
[7] = molecular target: T2, human CD5 antigen (human, UniProt P06127 25-495); experiment: competitive binding on Molt4-M cells, single point at 0.54 nM, competitor 125I-cH65 IgG
T2 construct: whole, on cells; also called gp67; CD5 found on Molt-4M
T2 sequence (looked up): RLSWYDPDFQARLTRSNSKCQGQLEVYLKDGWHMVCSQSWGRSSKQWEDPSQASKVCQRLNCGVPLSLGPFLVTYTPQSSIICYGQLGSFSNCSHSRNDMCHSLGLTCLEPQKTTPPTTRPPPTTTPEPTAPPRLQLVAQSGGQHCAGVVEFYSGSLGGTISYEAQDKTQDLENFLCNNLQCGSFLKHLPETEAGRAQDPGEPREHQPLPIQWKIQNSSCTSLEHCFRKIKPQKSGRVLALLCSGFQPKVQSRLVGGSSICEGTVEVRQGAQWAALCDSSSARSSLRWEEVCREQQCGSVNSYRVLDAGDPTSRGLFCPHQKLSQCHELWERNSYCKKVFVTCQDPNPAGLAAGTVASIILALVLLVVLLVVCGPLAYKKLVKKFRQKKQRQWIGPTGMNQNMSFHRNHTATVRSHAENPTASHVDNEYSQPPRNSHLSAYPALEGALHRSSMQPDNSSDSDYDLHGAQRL
Procedure: Molt4-M cells, which express CD5 on their surface, were plated into 96 well V-bottom plates at a density of 3×10⁵ cells per well and pelleted by centrifugation. The medium was decanted, and 100 μl of purified cH65 IgG at final concentrations from 200 nM to 0.0017 nM (diluted in 3-fold steps) in “BHD” [DMEM (Dulbecco's Modified Eagle's Medium)+1% BSA+10 mM Hepes, pH 7.2] (BHD) was added to each well, followed by 100 μl of ¹²⁵I-cH65 IgG (final concentration=0.1 nM) in BHD. For single point determinations, 50-100 μl of the Centricon® concentrates were added to the wells as follows: hH65 (final concentration=0.54 nM), cH65 (final concentration=0.22 nM), CM+purified cH65 IgG (final concentration=30 nM) and CM alone. These were followed by addition of ¹²⁵I-cH65 IgG (final concentration=0.1 nM). Binding was allowed to proceed for 5 hours at 4° C. At the end of 5 hours, binding was terminated by three washes with ice cold BHD using centrifugation to pellet cells. Radioactivity was determined by solubilizing bound ¹²⁵I-cH65 IgG with 1N NaOH and counting in a Beckman Gamma 8000 (Beckman Instruments, Fullerton, Calif.).

- % of CD4 cells that are also positive for mouse IgG1 [1]: 96.2%
- % of CD8 cells that are also positive for mouse IgG1 [1]: 70.2%
- % of CD4 cells that are also positive for mouse IgG1 [2]: 84.8%
- % of CD8 cells that are also positive for mouse IgG1 [2]: 73.6%
- % of CD4 cells that are also positive for mouse IgG1 [3]: 96.2%
- % of CD8 cells that are also positive for mouse IgG1 [3]: 96.8%
Molecule: OX19 MoAb (antibody)

- % of CD4 cells that are also positive for mouse IgG1 [4]: 14.8%
- % of CD8 cells that are also positive for mouse IgG1 [4]: 20.6%
- % of CD4 cells that are also positive for mouse IgG1 [5]: 6.7%
- % of CD8 cells that are also positive for mouse IgG1 [5]: 5.7%
- % of CD4 cells that are also positive for mouse IgG1 [6]: 4.2%
- % of CD8 cells that are also positive for mouse IgG1 [6]: 6.5%
B1: MoAb H65 (murine monoclonal antibody produced by cell line XMMLY-H65) (antibody, V domains shown)
VH: QIQLVQSGPELKKPGETVKISCKASGYTFTNYGMNWVKQAPGKGLRWMGWINTHTGEPTYADDFKGRFAFSLETSASTAYLQINNLKNEDTATYFCTRRGYDWYFDVWGAGTTVTVSS
VL: DIKMTQSPSSMYASLGERVTITCKASQDINSYLSWFQQKPGKSPKTLIYRANRLVDGVPSRFSGSGSGQDYSLTISSLDYEDMGIYYCQQYDESPWTFGGGTKLEIK

- binding result [7]: binds
B2: humanized H65 IgG (low-risk modified H65) (antibody, V domains shown)
VH: QIQLVQSGPGLKKPGGSVRISCAASGYTFTNYGMNWVKQAPGKGLRWMGWINTHTGEPTYADDFKGRFTFSLDTSKSTAYLQINSLRAEDTATYFCTRRGYDWYFDVWGQGTTVTVSS
VL: DIQMTQSPSSMSASLGDRVTITCRASQDINSYLSWFQQKPGKSPKTLIYRANRLVDGVPSRFSGSGSGTDYTLTISSLQYEDFGIYYCQQYDESPWTFGGGTKLEIK
notes: Whole IgG transiently expressed in CHO-K1 from vectors pING4612 (heavy) and pING4614 (light); Human constant regions; also called hH65; H65 antibody modified according to the methods of the present invention

Source: patent publication US20040005630A1 (published 2004)
